First the molecules themselves.
B1: RAB11B (parent)
chain: AVPTDEARAFAEKNNLSFIETSAL
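Also: lentivirally expressed fusions sorted by FACS into six bins by GFP to DsRed ratio, PSI derived from sequencing read proportions per bin multiplied by bin number.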

In this data set the parent is B1. Nature of the data set: protein stability index of a GFP-peptide fusion (GPS, HEK-293T) (PSI 1-6); higher = more stable. As to conditions: c terminus: a fixed tail appended.
On to AVPTDEARAFAEKNNLSVIETSAL [F18V], for which the protein stability index came out at 4.71.

Consider AVPTDEARAFASKNNLSFIETSAL [E12S], for which the protein stability index is 2.08.

Turning to AVPTDEARAFACKNNLSFIETSAL [E12C], the protein stability index turned out to be 1.91.

For AVPTDEARAFAHKNNLSFIETSAL [E12H], the protein stability index worked out at 2.65.

As to AVPTDEARAFAYKNNLSFIETSAL [E12Y], the protein stability index worked out at 1.93.

As for AVPTDEARAFAKKNNLSFIETSAL [E12K], the protein stability index was 1.93.

On to AVPTDEARAFAIKNNLSFIETSAL [E12I], for which the protein stability index is 1.99.

Consider AVPTDEARAFANKNNLSFIETSAL [E12N], for which the protein stability index turned out to be 2.02.

On to AVPTDEARAFAFKNNLSFIETSAL [E12F], for which the protein stability index worked out at 1.74.

Take AVPTDEARAFAQKNNLSFIETSAL [E12Q]: the protein stability index amounted to 2.52.

For AVPTDEARAFAPKNNLSFIETSAL [E12P], the protein stability index is 2.34.

Take AVPTDEARAFADKNNLSFIETSAL [E12D]: the protein stability index stood at 2.81.

In the case of AVPTDEARAFARKNNLSFIETSAL [E12R], the protein stability index turned out to be 2.15.

Take AVPTDEARAFAWKNNLSFIETSAL [E12W]: the protein stability index was found to be 1.6.

Turning to AVPTDEARAFAGKNNLSFIETSAL [E12G], the protein stability index was 2.16.

Turning to AVPTDEARAFATKNNLSFIETSAL [E12T], the protein stability index amounted to 2.61.

For AVPTDEARAFAMKNNLSFIETSAL [E12M], the protein stability index was found to be 1.97.

Take AVPTDEARAFAVKNNLSFIETSAL [E12V]: the protein stability index turned out to be 2.47.

Consider AVPTDEARAFALKNNLSFIETSAL [E12L], for which the protein stability index turned out to be 2.02.

With AVPTDEARAFAEKNNLEFIETSAL [S17E], the protein stability index was found to be 4.62.

Take AVPTDEARAFAEKNNLYFIETSAL [S17Y]: the protein stability index was found to be 2.85.

On to AVPTDEARAFAEKNNLLFIETSAL [S17L], for which the protein stability index was 2.77.

Consider AVPTDEARAFAEKNNLPFIETSAL [S17P], for which the protein stability index came to 4.19.

As for AVPTDEARAFAEKNNLAFIETSAL [S17A], the protein stability index is 2.78.

For AVPTDEARAFAEKNNLIFIETSAL [S17I], the protein stability index worked out at 2.89.

Turning to AVPTDEARAFAEKNNLQFIETSAL [S17Q], the protein stability index stood at 4.23.

Regarding AVPTDEARAFAEKNNLDFIETSAL [S17D], the protein stability index was found to be 3.48.

As to AVPTDEARAFAEKNNLVFIETSAL [S17V], the protein stability index stood at 3.15.

Turning to AVPTDEARAFAEKNNLMFIETSAL [S17M], the protein stability index was determined as 3.1.

Regarding AVPTDEARAFAEKNNLWFIETSAL [S17W], the protein stability index amounted to 2.64.

As to AVPTDEARAFAEKNNLNFIETSAL [S17N], the protein stability index stood at 2.86.

Take AVPTDEARAFAEKNNLGFIETSAL [S17G]: the protein stability index was determined as 3.7.

For the variant AVPTDEARAFAEKNNLTFIETSAL [S17T], the protein stability index amounted to 2.93.

Regarding AVPTDEARAFAEKNNLKFIETSAL [S17K], the protein stability index amounted to 3.79.

Regarding AVPTDEARAFAEKNNLRFIETSAL [S17R], the protein stability index is 3.41.

Regarding AVPTDEARAFAEKNNLHFIETSAL [S17H], the protein stability index was 3.07.

For AVPTDEARAFAEKNNLCFIETSAL [S17C], the protein stability index amounted to 3.

For AVPTDEARAFAEKNNLFFIETSAL [S17F], the protein stability index was found to be 2.59.

In the case of AVPTDEARAFAEKNNLSFIGTSAL [E20G], the protein stability index was determined as 2.76.

On to AVPTDEARAFAEKNNLSFIWTSAL [E20W], for which the protein stability index amounted to 1.32.

Consider AVPTDEARAFAEKNNLSFIFTSAL [E20F], for which the protein stability index came to 1.62.

AVPTDEARAFAEKNNLSFIKTSAL [E20K]: the protein stability index stood at 3.13.

For AVPTDEARAFAEKNNLSFILTSAL [E20L], the protein stability index was determined as 2.15.

In the case of AVPTDEARAFAEKNNLSFIYTSAL [E20Y], the protein stability index stood at 2.31.

As to AVPTDEARAFAEKNNLSFIATSAL [E20A], the protein stability index came to 2.88.

With AVPTDEARAFAEKNNLSFIDTSAL [E20D], the protein stability index amounted to 2.92.

As to AVPTDEARAFAEKNNLSFIQTSAL [E20Q], the protein stability index is 3.35.

Consider AVPTDEARAFAEKNNLSFICTSAL [E20C], for which the protein stability index was determined as 2.28.

Take AVPTDEARAFAEKNNLSFISTSAL [E20S]: the protein stability index was determined as 3.18.

With AVPTDEARAFAEKNNLSFIRTSAL [E20R], the protein stability index turned out to be 3.02.

For AVPTDEARAFAEKNNLSFIMTSAL [E20M], the protein stability index was 2.05.

Consider AVPTDEARAFAEKNNLSFITTSAL [E20T], for which the protein stability index was found to be 2.44.

Consider AVPTDEARAFAEKNNLSFIITSAL [E20I], for which the protein stability index stood at 1.85.

Consider AVPTDEARAFAEKNNLSFINTSAL [E20N], for which the protein stability index was found to be 1.74.

As for AVPTDEARAFAEKNNLSFIVTSAL [E20V], the protein stability index is 1.95.

For the variant AVPTDEARAFAEKNNLSFIPTSAL [E20P], the protein stability index came out at 3.17.

For the variant AVPTDEARAFAEKNNLSFIHTSAL [E20H], the protein stability index worked out at 2.36.

For AVPTDEARAFAEKNNLSFIEFSAL [T21F], the protein stability index is 2.34.

As for AVPTDEARAFAEKNNLSFIECSAL [T21C], the protein stability index turned out to be 2.85.

Turning to AVPTDEARAFAEKNNLSFIEHSAL [T21H], the protein stability index amounted to 3.06.

For the variant AVPTDEARAFAEKNNLSFIEASAL [T21A], the protein stability index is 3.41.

AVPTDEARAFAEKNNLSFIELSAL [T21L]: the protein stability index amounted to 3.08.

For the variant AVPTDEARAFAEKNNLSFIEGSAL [T21G], the protein stability index is 2.38.

Turning to AVPTDEARAFAEKNNLSFIESSAL [T21S], the protein stability index is 3.64.

On to AVPTDEARAFAEKNNLSFIEPSAL [T21P], for which the protein stability index turned out to be 2.35.

As to AVPTDEARAFAEKNNLSFIEESAL [T21E], the protein stability index came out at 4.67.

In the case of AVPTDEARAFAEKNNLSFIEMSAL [T21M], the protein stability index amounted to 3.35.

As for AVPTDEARAFAEKNNLSFIEQSAL [T21Q], the protein stability index worked out at 4.12.

Regarding AVPTDEARAFAEKNNLSFIERSAL [T21R], the protein stability index stood at 3.42.

As for AVPTDEARAFAEKNNLSFIEYSAL [T21Y], the protein stability index came to 2.

In the case of AVPTDEARAFAEKNNLSFIEKSAL [T21K], the protein stability index was 3.65.

AVPTDEARAFAEKNNLSFIENSAL [T21N]: the protein stability index is 2.86.

Regarding AVPTDEARAFAEKNNLSFIEISAL [T21I], the protein stability index stood at 2.3.

For the variant AVPTDEARAFAEKNNLSFIEDSAL [T21D], the protein stability index was 4.39.

As for AVPTDEARAFAEKNNLSFIEVSAL [T21V], the protein stability index was found to be 1.52.

Regarding AVPTDEARAFAEKNNLSFIEWSAL [T21W], the protein stability index turned out to be 2.76.

As to AVPTDEARAFAEKNNLSFIETRAL [S22R], the protein stability index was found to be 3.13.

In the case of AVPTDEARAFAEKNNLSFIETGAL [S22G], the protein stability index stood at 2.85.

As to AVPTDEARAFAEKNNLSFIETTAL [S22T], the protein stability index worked out at 2.98.

In the case of AVPTDEARAFAEKNNLSFIETEAL [S22E], the protein stability index was determined as 4.06.

With AVPTDEARAFAEKNNLSFIETIAL [S22I], the protein stability index turned out to be 2.49.

Regarding AVPTDEARAFAEKNNLSFIETPAL [S22P], the protein stability index amounted to 4.02.

Regarding AVPTDEARAFAEKNNLSFIETQAL [S22Q], the protein stability index amounted to 3.56.

On to AVPTDEARAFAEKNNLSFIETVAL [S22V], for which the protein stability index was determined as 3.19.

Turning to AVPTDEARAFAEKNNLSFIETCAL [S22C], the protein stability index turned out to be 3.36.

For the variant AVPTDEARAFAEKNNLSFIETWAL [S22W], the protein stability index came out at 2.91.

Regarding AVPTDEARAFAEKNNLSFIETAAL [S22A], the protein stability index came to 2.71.

For the variant AVPTDEARAFAEKNNLSFIETFAL [S22F], the protein stability index was 2.52.

On to AVPTDEARAFAEKNNLSFIETNAL [S22N], for which the protein stability index stood at 3.69.

Consider AVPTDEARAFAEKNNLSFIETLAL [S22L], for which the protein stability index came out at 3.08.

As for AVPTDEARAFAEKNNLSFIETMAL [S22M], the protein stability index amounted to 2.83.

On to AVPTDEARAFAEKNNLSFIETKAL [S22K], for which the protein stability index was determined as 3.69.

As to AVPTDEARAFAEKNNLSFIETDAL [S22D], the protein stability index stood at 4.17.

Consider AVPTDEARAFAEKNNLSFIETHAL [S22H], for which the protein stability index amounted to 2.74.

The record behind these values is the supplement of paper PMC10567573.
